Measured values: PMC6356862, “A polyextremophilic alcohol dehydrogenase from the Atlantis II Deep Red Sea brine pool” (FEBS Open Bio, 2018)

B1: ADH/A1a (candidate division MSBL1 archaeon SCGC-AAA261F19) (protein)
chain: MKAMQLKEPKPVEQAPLEMVELKEPRPGPKEVKIDVQACGVCHTDLHTVEGELSLPKLPIVPGHEVVGVVEESGDEAEHFEVGDRVGVTWLYSSCGECKFCRRGQENLCEDPMFTGLHADGGYEESMVAKEDFVYPIPKNISDEDAAPLLCAGVIGYRSLRLSEVKPGQRLGLFGFGASAHIVIQLATDMGCEVYVFTRSEEHRRLARELGSAWEGSAKDDPPHRIDSGITFAPVGWIVKEALRDLEKGGTLAINAIHMTPIPELDYDLIYHEKKLRSVANVTREDAEGFLKIAGDIPVQTEVETFPLEEANRALRLLKDSKINGAGVLKVS
notes: N-terminal 20-residue nonsense region of annotated adh/a1 deleted; N-terminal His6-tag; codon-optimized, expressed in Haloferax volcanii H1895 (pTA963); zinc added

Assays:
[1] = target: Alcohol dehydrogenase/A1a (ADH/A1a) from an uncultured MSBL1 archaeon of the Atlantis II Deep Red Sea brine pool (uncultured MSBL1 (Mediterranean Sea Brine Lake 1) archaeon); experiment: native gel or EMSA; Coomassie-stained native PAGE of purified ADH/A1a (Fig. S4); conditions not given
purified protein [2] = substrate: CC(C)=CCC/C(C)=C/CO; experiment: purified protein; type: biochemical, candidate division MSBL1 archaeon SCGC-AAA261F19; conditions: standard oxidation conditions: 3 M KCl, 50 mM glycine/NaOH pH 10.0, 60 °C, 10 mM NAD(P)+, 0.4 mM zinc sulfate, cofactor (NAD+ or NADP+) not specified
purified protein [3] = substrate: OC/C=C/c1ccccc1; experiment: purified protein; type: biochemical, candidate division MSBL1 archaeon SCGC-AAA261F19; conditions: standard oxidation conditions: 3 M KCl, 50 mM glycine/NaOH pH 10.0, 60 °C, 10 mM NAD(P)+, 0.4 mM zinc sulfate, cofactor (NAD+ or NADP+) not specified
purified protein [4] = substrate: CCO; experiment: purified protein; conditions: standard oxidation conditions: 3 M KCl, 50 mM glycine/NaOH pH 10.0, 60 °C, 10 mM NAD(P)+, 0.4 mM zinc sulfate, cofactor (NAD+ or NADP+) not specified

| Molecule | stoichiometry N [1] | Km (purified protein [2]) [µM] | Vmax (purified protein [2]) [µmol/min/mg] | kcat (purified protein [2]) [s⁻¹] | kcat/Km (purified protein [2]) [M⁻¹ s⁻¹] | Km (purified protein [3]) [µM] | Vmax (purified protein [3]) [µmol/min/mg] | kcat (purified protein [3]) [s⁻¹] | kcat/Km (purified protein [3]) [M⁻¹ s⁻¹] | Km (purified protein [4]) [µM] | Vmax (purified protein [4]) [µmol/min/mg] | kcat (purified protein [4]) [s⁻¹] | kcat/Km (purified protein [4]) [M⁻¹ s⁻¹] |
| --- | --- | --- | --- | --- | --- | --- | --- | --- | --- | --- | --- | --- | --- |
| Alcohol dehydrogenase/A1a (ADH/A1a) from an uncultured MSBL1 archaeon of the Atlantis II Deep Red Sea brine pool (enzyme) | 4 | – | – | – | – | – | – | – | – | – | – | – | – |
| B1 | – | 270 ± 40 | 0.131 | 0.082 ± 0.003 | 290 ± 18 | 470 ± 90 | 0.237 | 0.144 ± 0.009 | 310 ± 10 | 94430 ± 8400 | 0.142 | 0.089 | 0.94 |
